Results reported in article PMC10991250, “Efficient synthesis 1,4-cyclohexanedicarboxaldehyde by an engineered alcohol oxidase” (Bioresources and Bioprocessing, 2022).
Positions count from the first letter of the chain named. Names may count otherwise.

B1: AcCO (Pseudarthrobacter chlorophenolicus A6) (protein)
chain: MHIDNIENLSDRGFDYVVIGGGSAGAAVAARLSEDPDVSVALVEAGPDDRNIPEILQLDRWMELLESGYDWDYPIEPQENGNSFMRHARAKVMGGCSSHNSCIAFWAPREDLDEWESKYGATGWNAANAWPLYKRLETNQDAGPDAPHHGDSGPVHLMNVPPADPSGVALLDACEEAGIPRARFNTGTTVVNGANFFQINRRGDGTRSSSSVSYIHPIIERDNFTLLTGLRARQLVFDADKRCTGVEVVDGAFGRTHRLTARHEVILSTGAIDSPKLLMLSGIGPAEHLAQHGIEVLVDSPGVGENLQDHPEGVVQFEAKQPMVQTSTQWWEIGIFTPTEDGLDRPDLMMHYGSVPFDMNTLRHGYPTTENGFSLTPNVTHARSRGTVRLRSRDFRDKPMVDPRYFTDPEGHDMRVMVAGIRKAREIAAQPAMSAWTGRELSPGVGAQTDEELQDYIRKTHNTVYHPVGTVRMGADDDGMSPLDARLRVKGVTGLRVADASVMPEHVTVNPNITVMMIGERCADLIKADYAGADALEEKELTTSFA
notes: codon-optimized synthetic gene in pET-28a(+) (BamHI/EcoRI), E. coli BL21(DE3), purified by AKTA; FAD-dependent
B2: AcCO (Pseudarthrobacter chlorophenolicus A6; S101A) (protein)
chain: B1 chain with S101A
notes: as for B1
B3: AcCO (Pseudarthrobacter chlorophenolicus A6; H351V) (protein)
chain: B1 chain with H351V
notes: as for B1
B4: AcCO (Pseudarthrobacter chlorophenolicus A6; H351V/S101A) (protein)
chain: B1 chain with S101A, H351V
notes: as for B1
B5: AcCO (Pseudarthrobacter chlorophenolicus A6; H351V/N378S/S101A) (protein)
chain: B1 chain with S101A, H351V, N378S
notes: as for B1
B6: AcCO (Pseudarthrobacter chlorophenolicus A6; H351V/N378S/Q329N/S101A) (protein)
chain: B1 chain with S101A, Q329N, H351V, N378S
notes: as for B1

What follows are proteins tested on O=CC1CCC(CO)CC1 (assay: initial rate of CHDA formation by GC, Michaelis-Menten fit). Settings: 1-100 mM HMCA, air-saturated O2, 100 mM potassium phosphate pH 8.0, 30 °C, 5% DMSO, 0.1 g/L catalase.
Assay type: biochemical, Pseudarthrobacter chlorophenolicus
Source text: initial rate of CHDA formation by GC, Michaelis-Menten fit on AcCO

Q: Which results are given for B1?
A: Km: 26.81 ± 0.19 mM; kcat: 0.000717 ± 0.000217 s⁻¹; kcat/Km: 0.0267 M⁻¹ s⁻¹

Q: What does the source list for B2?
A: Km: 20.42 ± 0.12 mM; kcat: 0.00233 ± 0.000367 s⁻¹; kcat/Km: 0.114 M⁻¹ s⁻¹

Q: With B3 as the protein, how does the Km read?
A: 16.24 ± 0.11 mM

Q: What about the kcat of the same protein?
A: 0.004 ± 0.000367 s⁻¹

Q: What about the kcat/Km of the same protein?
A: 0.247 M⁻¹ s⁻¹

Q: B4 was tested. Which Km did it give?
A: 14.44 ± 0.46 mM

Q: What about the kcat of the same protein?
A: 0.00683 ± 0.000233 s⁻¹

Q: What about the kcat/Km of the same protein?
A: 0.473 M⁻¹ s⁻¹

Q: Which results are given for B5?
A: Km: 6.81 ± 0.13 mM; kcat: 0.00883 ± 0.002 s⁻¹; kcat/Km: 1.3 M⁻¹ s⁻¹

Q: Which Km does the source give for B6 here?
A: 5.24 ± 0.28 mM

Q: And the kcat?
A: 0.0157 ± 0.000717 s⁻¹

Q: And the kcat/Km?
A: 3 M⁻¹ s⁻¹

Each protein was assayed on OCC1CCC(CO)CC1 (assay: initial rate of HMCA formation by GC, Michaelis-Menten fit). Settings: 1-100 mM CHDM, air-saturated O2, 100 mM potassium phosphate pH 8.0, 30 °C, 5% DMSO, 0.1 g/L catalase.
Assay type: biochemical, Pseudarthrobacter chlorophenolicus
Source text: initial rate of HMCA formation by GC, Michaelis-Menten fit on AcCO

Q: What does the source list for B1?
A: Km: 15.30 ± 0.14 mM; kcat: 0.00267 ± 0.000467 s⁻¹; kcat/Km: 0.167 M⁻¹ s⁻¹

Q: How did the Km turn out when B2 was run?
A: 13.45 ± 0.23 mM

Q: What about the kcat of the same protein?
A: 0.00617 ± 0.00107 s⁻¹

Q: What about the kcat/Km of the same protein?
A: 0.45 M⁻¹ s⁻¹

Q: B3 was tested. Which Km did it give?
A: 13.36 ± 0.12 mM

Q: And the kcat?
A: 0.00683 ± 0.00045 s⁻¹

Q: And the kcat/Km?
A: 0.517 M⁻¹ s⁻¹

Q: What does the source list for B4?
A: Km: 10.21 ± 0.46 mM; kcat: 0.02183 ± 0.000183 s⁻¹; kcat/Km: 2.17 M⁻¹ s⁻¹

Q: For B5, which Km is on record?
A: 7.63 ± 0.72 mM

Q: What about the kcat of the same protein?
A: 0.0312 ± 0.002 s⁻¹

Q: What about the kcat/Km of the same protein?
A: 4 M⁻¹ s⁻¹

Q: With B6 as the protein, how does the Km read?
A: 1.12 ± 0.19 mM

Q: What about the kcat of the same protein?
A: 0.0367 ± 0.00717 s⁻¹

Q: And the kcat/Km?
A: 32.7 M⁻¹ s⁻¹
